± gives the uncertainty stated by the source.

The chains are these.
B1: POU domain, class 3, transcription factor 3, residues 320 to 388; numbered along this chain, P20264 (parent)
chain: DDLEQFAKQFKQRRIKLGFTQADVGLALGTLYGNVFSQTTICRFEALQLSFKNMCKLKPLLNKWLEEAD

The variants in this data set derive from B1. Briefly: abundance fitness (aPCA) (normalised: wild type 0, dead -1); higher = more abundant; growth selection in yeast, the domain comes from the species named. The following applies: Homo sapiens.
For the variant DDLEQFAKQFKQRRIKLGFTQADLGLALGTLYGNVFSQTTICRFEALQLSFKNMCKLKPLLNKWLEEAD [V24L], the abundance fitness was -0.679 ± 0.18. Regarding DDLEQFAKQFKQRRIKLGFTQADKGLALGTLYGNVFSQTTICRFEALQLSFKNMCKLKPLLNKWLEEAD [V24K], the abundance fitness was -0.899 ± 0.25.

With DDLEQFAKQFKQRRIKLGFTQADCGLALGTLYGNVFSQTTICRFEALQLSFKNMCKLKPLLNKWLEEAD [V24C], the abundance fitness was -0.531 ± 0.41. The result for DDLEQFAKQFKQRRIKLGFTQADAGLALGTLYGNVFSQTTICRFEALQLSFKNMCKLKPLLNKWLEEAD [V24A] reads -0.677 ± 0.22; that for DDLEQFAKQFKQRRIKLGFTQADDGLALGTLYGNVFSQTTICRFEALQLSFKNMCKLKPLLNKWLEEAD [V24D], -0.882 ± 0.44.

DDLEQFAKQFKQRRIKLGFTQADIGLALGTLYGNVFSQTTICRFEALQLSFKNMCKLKPLLNKWLEEAD [V24I]: the abundance fitness is -0.766 ± 0.37.

On to DDLEQFAKQFKQRRIKLGFTQADFGLALGTLYGNVFSQTTICRFEALQLSFKNMCKLKPLLNKWLEEAD [V24F], for which the abundance fitness was found to be 0.197 ± 0.23. Turning to DDLEQFAKQFKQRRIKLGFTQSDVGLALGTLYGNVFSQTTICRFEALQLSFKNMCKLKPLLNKWLEEAD [A22S], the abundance fitness is -0.243 ± 0.085. Then DDLEQFAKQFKQRRIKLGFTQKDVGLALGTLYGNVFSQTTICRFEALQLSFKNMCKLKPLLNKWLEEAD [A22K], with 0.103 ± 0.1. On to DDLEQFAKQFKQRRIKLGFTQGDVGLALGTLYGNVFSQTTICRFEALQLSFKNMCKLKPLLNKWLEEAD [A22G], for which the abundance fitness was -0.25 ± 0.13. Regarding DDLEQFAKQFKQRRIKLGFTQHDVGLALGTLYGNVFSQTTICRFEALQLSFKNMCKLKPLLNKWLEEAD [A22H], the abundance fitness is 0.228 ± 0.34. On to DDLEQFAKQFKQRRIKLGFTQFDVGLALGTLYGNVFSQTTICRFEALQLSFKNMCKLKPLLNKWLEEAD [A22F], for which the abundance fitness is -0.293 ± 0.21. As to DDLEQFAKQFKQRRIKLGFTQEDVGLALGTLYGNVFSQTTICRFEALQLSFKNMCKLKPLLNKWLEEAD [A22E], the abundance fitness was -0.17 ± 0.15. DDLEQFAKQFKQRRIKLGFTQIDVGLALGTLYGNVFSQTTICRFEALQLSFKNMCKLKPLLNKWLEEAD [A22I]: the abundance fitness is -0.392 ± 0.39. Take DDLEQFAKQFKQRRIKLGFTQVDVGLALGTLYGNVFSQTTICRFEALQLSFKNMCKLKPLLNKWLEEAD [A22V]: the abundance fitness was -0.513 ± 0.1. For the variant DDLEQFAKQFKQRRIKLGFTQTDVGLALGTLYGNVFSQTTICRFEALQLSFKNMCKLKPLLNKWLEEAD [A22T], the abundance fitness is -0.162 ± 0.27.

On to DDLEQFAKQFKQRRIKLGFTQLDVGLALGTLYGNVFSQTTICRFEALQLSFKNMCKLKPLLNKWLEEAD [A22L], for which the abundance fitness was -0.49 ± 0.12.

As to DDLEQFAKQFKQRRIKLGFTQWDVGLALGTLYGNVFSQTTICRFEALQLSFKNMCKLKPLLNKWLEEAD [A22W], the abundance fitness was -0.83 ± 0.26. As to DDLEQFAKQFKQRRIKLGFTQPDVGLALGTLYGNVFSQTTICRFEALQLSFKNMCKLKPLLNKWLEEAD [A22P], the abundance fitness is -0.849 ± 0.44. The result for DDLEQFAKQFKQRRIKLGFTQQDVGLALGTLYGNVFSQTTICRFEALQLSFKNMCKLKPLLNKWLEEAD [A22Q] reads 0.036 ± 0.2. As to DDLEQFAKQFKQRRIKLGFTQRDVGLALGTLYGNVFSQTTICRFEALQLSFKNMCKLKPLLNKWLEEAD [A22R], the abundance fitness is -0.163 ± 0.082. DDLEQFAKQFKQRRIKLGFTYADVGLALGTLYGNVFSQTTICRFEALQLSFKNMCKLKPLLNKWLEEAD [Q21Y]: the abundance fitness was -0.147 ± 0.42.

For DDLEQFAKQFKQRRIKLGFTTADVGLALGTLYGNVFSQTTICRFEALQLSFKNMCKLKPLLNKWLEEAD [Q21T], the abundance fitness is -0.507 ± 0.35. DDLEQFAKQFKQRRIKLGFTSADVGLALGTLYGNVFSQTTICRFEALQLSFKNMCKLKPLLNKWLEEAD [Q21S]: the abundance fitness is -0.242 ± 0.16. With DDLEQFAKQFKQRRIKLGFTWADVGLALGTLYGNVFSQTTICRFEALQLSFKNMCKLKPLLNKWLEEAD [Q21W], the abundance fitness is -0.284 ± 0.14. DDLEQFAKQFKQRRIKLGFTVADVGLALGTLYGNVFSQTTICRFEALQLSFKNMCKLKPLLNKWLEEAD [Q21V]: the abundance fitness is -0.017 ± 0.11. DDLEQFAKQFKQRRIKLGFTQARVGLALGTLYGNVFSQTTICRFEALQLSFKNMCKLKPLLNKWLEEAD [D23R]: the abundance fitness is -0.187 ± 0.075. As for DDLEQFAKQFKQRRIKLGFTQAQVGLALGTLYGNVFSQTTICRFEALQLSFKNMCKLKPLLNKWLEEAD [D23Q], the abundance fitness was found to be 0.039 ± 0.13. As to DDLEQFAKQFKQRRIKLGFTQAVVGLALGTLYGNVFSQTTICRFEALQLSFKNMCKLKPLLNKWLEEAD [D23V], the abundance fitness was -0.937 ± 0.17. The result for DDLEQFAKQFKQRRIKLGFTQAFVGLALGTLYGNVFSQTTICRFEALQLSFKNMCKLKPLLNKWLEEAD [D23F] reads -0.998 ± 0.49. For the variant DDLEQFAKQFKQRRIKLGFTQAPVGLALGTLYGNVFSQTTICRFEALQLSFKNMCKLKPLLNKWLEEAD [D23P], the abundance fitness is -1.04 ± 0.42. Then DDLEQFAKQFKQRRIKLGFTQAYVGLALGTLYGNVFSQTTICRFEALQLSFKNMCKLKPLLNKWLEEAD [D23Y], with -0.778 ± 0.38. For the variant DDLEQFAKQFKQRRIKLGFTQAMVGLALGTLYGNVFSQTTICRFEALQLSFKNMCKLKPLLNKWLEEAD [D23M], the abundance fitness is -0.802 ± 0.26. As to DDLEQFAKQFKQRRIKLGFTQASVGLALGTLYGNVFSQTTICRFEALQLSFKNMCKLKPLLNKWLEEAD [D23S], the abundance fitness was -0.743 ± 0.17. Regarding DDLEQFAKQFKQRRIKLGFTQAEVGLALGTLYGNVFSQTTICRFEALQLSFKNMCKLKPLLNKWLEEAD [D23E], the abundance fitness is -0.023 ± 0.049. Consider DDLEQFAKQFKQRRIKLGFTQAIVGLALGTLYGNVFSQTTICRFEALQLSFKNMCKLKPLLNKWLEEAD [D23I], for which the abundance fitness is -0.704 ± 0.46. Regarding DDLEQFAKQFKQRRIKLGFTQANVGLALGTLYGNVFSQTTICRFEALQLSFKNMCKLKPLLNKWLEEAD [D23N], the abundance fitness was -0.687 ± 0.48.

As to DDLEQFAKQFKQRRIKLGFTQAGVGLALGTLYGNVFSQTTICRFEALQLSFKNMCKLKPLLNKWLEEAD [D23G], the abundance fitness is -0.185 ± 0.06.

In the case of DDLEQFAKQFKQRRIKLGFTQAKVGLALGTLYGNVFSQTTICRFEALQLSFKNMCKLKPLLNKWLEEAD [D23K], the abundance fitness was -0.764 ± 0.24.
